The text below walks through data of paper PMC5428264, “Dentin sialoprotein facilitates dental mesenchymal cell differentiation and dentin formation” (Scientific Reports, 2017).

Experiment [1] concerns the target T1, biotinylated DSPf5 (recombinant DSP aa 363–458) (mouse, UniProt P97399 363-458, biotin (Sulfo-NHS-LC-biotin)).
T1 construct: The same recombinant protein as m6, labelled with biotin; source: E. coli BL21, purified (GSTrap 4B), then reacted with Sulfo-NHS-LC-biotin
T1 sequence (looked up): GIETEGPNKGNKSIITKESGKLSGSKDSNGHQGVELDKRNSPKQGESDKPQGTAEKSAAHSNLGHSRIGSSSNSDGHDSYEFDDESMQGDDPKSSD
Put plainly: ELISA; substrate binding assay: OclnL2 coated at 1 μg per well (BSA as control), biotinylated DSPf5 at 0–18 fold molar excess in PBS with 1% BSA, room temperature, different time periods; AP-conjugated streptavidin, PNPP, 405 nm. Conditions: both partners purified.

The target of experiment [2] is T2, GST-DSPf5 fusion protein (COOH-terminal DSP domain aa 363–458) (mouse, UniProt P97399 363-458).
T2 construct: also called DSP peptide; source: E. coli BL21, purified (GSTrap 4B)
T2 sequence (looked up): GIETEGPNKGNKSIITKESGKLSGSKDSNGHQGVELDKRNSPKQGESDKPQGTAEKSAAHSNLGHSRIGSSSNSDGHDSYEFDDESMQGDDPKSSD
Put plainly: co-IP; in vitro immunoprecipitation: 10 μg of purified GST-DSP and GST-Ocln fusion proteins mixed, precipitated with DSP or Ocln antibody and protein G Sepharose, blotted with the other antibody. Conditions: both partners purified.

B1: GST-OclnL2 fusion protein (occludin extracellular loop 2, aa 194–241) (domain or fragment, mouse, UniProt Q61146 194-241, looked up)
chain: GVNPTAQASGSMYGSQIYMICNQFYTPGGTGLYVDQYLYHYCVVDPQE
notes: occludin, mouse, extracellular loop 2, residues 194-241 counted from the translation start site; Cloned into pGEX-6P3 from pBluescript SK-Ocln; also called Ocln loop2; extracellular loop 2 of Ocln; source: E. coli BL21, purified (GSTrap 4B)
With B1, the binding result in experiment [1] and in experiment [2] was “binds” each time.
